Our source for the IC50 and EC50 values is patent US20230105029A1 (CHIA TAI TIANQING PHARMACEUTICAL GROUP, published 2023).

The target in experiment [1] is T1, recombinant human IL4Rα-his protein (in house made) (human, UniProt P24394 26-232, limits assumed).
T1 construct: also called Human IL4Ra-his
Nature of the experiment: competitive ELISA: coated human IL4Rα-his, blocked ligand biotin human IL4. The protocol:
The activity of the anti-IL4Rα antibodies of the disclosure to block IL4-IL4Rα interaction was measured in a competitive ELISA assay. Briefly, 100 μl human IL4Rα-his proteins (prepared in-house with SEQ ID NO: 57) were coated on 96-well micro plates at 2 μg/mL in PBS overnight at 4° C. The next day, plates were washed with wash buffer (PBS+0.05% w/v Tween-20, PBST), and blocked with 5% w/v non-fatty milk in PBST for 2 hours at 37° C. Plates were then washed again using wash buffer.
Serially diluted anti-IL4Rα antibodies or the controls (starting at 80 nM with a 4-fold serial dilution) in 2.5% w/v non-fatty milk in PBST, 100 μl per well, were added to the IL4Rα bound plates, and incubated with the human IL4Rα-his proteins at 37° C. for 40 minutes. Plates were washed 4 times using wash buffer, and then added and incubated for 40 minutes at 37° C. with 100 μl/well of 0.56 nM biotin-labeled human IL4 protein (Sino biological inc., Cat #11846-HNAE). Plates were washed again using wash buffer. Thereafter, the plates were added with 100 μl/well of streptavidin conjugated HRP (1:10000 dilution in PBST buffer, Jackson Immunoresearch, Cat #016-030-084) and incubated for 40 minutes at 37° C. Plates were washed again using wash buffer. Finally, TMB was added and the reaction was stopped using 1M H₂SO₄, and the absorbance was read at 450 nm. Data was analyzed using Graphpad Prism software and IC₅₀ values were reported.
On the technique in general: ELISA stands for enzyme-linked immunosorbent assay.

For experiment [2], the target named is T1, recombinant human IL4Rα-his protein (in …). Nature of the experiment: competitive ELISA: antibody mixed with biotin human IL4Rα-his, competitor plate-coated Benchmark. As for the experimental part: The ability of the anti-IL4Rα antibodies of the disclosure to block benchmark-human IL4Rα binding was measured in a competitive ELISA assay. Briefly, the benchmark was coated on 96-well micro plates at 2 μg/mL in PBS, 100 μl per well, and incubated overnight at 4° C. The next day, plates were washed with wash buffer (PBS+0.05% w/v Tween-20, PBST), and blocked with 5% w/v non-fatty milk in PBST for 2 hours at 37° C. tiring plate blocking, the anti-IL4Rα antibodies of the disclosure or controls were diluted with biotin labeled human IL4Rα-his proteins (prepared in-house with SEQ ID NO: 57, 0.55 nM in 2.5% w/v non-fatty milk in PBST), starting at 100 nM with a 4-fold serial dilution, and incubated at 25° C. for 40 minutes. After plate washing, the antibody/IL4Rα-his mixtures were added to benchmark coated plates, 100 μl per well. After incubation at 37° C. for 40 minutes, plates were washed using wash buffer. Then the plates were added and incubated with 100 μl/well streptavidin conjugated HRP for 40 minutes at 37° C. to detect biotin-labeled human IL4Rα-his bound to plates. Plates were washed again using wash buffer. Finally, TMB was added and the reaction was stopped using 1M H₂SO₄, and the absorbance was read at 450 nm. Data was analyzed using Graphpad Prism software and IC₅₀ values were reported.

Experiment [3] concerns the target T2, human IL4Rα expressed on 293F-IL4Rα cells (human, UniProt P24394 26-825).
T2 construct: whole, on cells; also called cell surface human IL4Rα
In words: flow cytometry, 293F-IL4Rα cells. The protocol:
Then, 2×10⁵ cells per well in 96 well-plates were incubated in 100 μL of the anti-IL4Rα antibodies or controls of various concentrations (starting at 80 nM with a 4-fold serial dilution) in FACS buffer for 40 minutes on ice. […] Following an incubation of 40 minutes at 4° C. in dark, cells were washed three times and resuspended in FACS buffer. Fluorescence was measured using a Becton Dickinson FACS Canto II-HTS equipment. Data was analyzed using Graphpad Prism software and EC₅₀ values were reported.

For experiment [4], the target named is T3, marmoset monkey IL4Rα-his protein (marmoset monkey).
T3 construct: Custom made by Sino biological; no cleavage site stated; also called cal-IL4Rα-his; Cal-IL4Rα
T3 chain: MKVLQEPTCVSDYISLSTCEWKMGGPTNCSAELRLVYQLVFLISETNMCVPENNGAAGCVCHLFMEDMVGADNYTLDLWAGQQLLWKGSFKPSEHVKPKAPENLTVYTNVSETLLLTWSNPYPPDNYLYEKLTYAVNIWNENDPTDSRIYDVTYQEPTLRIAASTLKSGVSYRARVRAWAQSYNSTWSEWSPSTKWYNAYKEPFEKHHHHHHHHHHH
Nature of the experiment: indirect ELISA, coated cal-IL4Rα-his.

The target of experiment [5] is T1, recombinant human IL4Rα-his protein (in …). In words: capture ELISA, biotin-IL4Rα-his.
Experiment [6] shares this target. Nature of the experiment: capture ELISA, biotin-IL4Rα-his. The protocol: Plates were washed once with wash buffer (PBS+0.05% w/v Tween-20, PBST) and then blocked with 200 μl/well blocking buffer (5% w/v non-fatty milk in PBST) for 2 hours at 37° C. Plates were washed again and incubated with 100 μl/well serially diluted anti-IL4Rα antibodies of the disclosure, the benchmark or negative control hIgG (human immunoglobulin (pH4) for intravenous injection, Hualan Biological Engineering Inc.) (5-fold dilution in 2.5% w/v non-fatty milk in PBST, starting at 66.7 nM) for 40 minutes at 37° C., and then washed 4 times again. Plates containing captured anti-IL4Rα antibodies were incubated with biotin-labeled human IL4Rα-his protein (in house made with SEQ ID NO: 57, 0.14 nM in 2.5% w/v non-fatty milk in PBST, 100 μl/well) for 40 minutes at 37° C., washed 4 times, and incubated with streptavidin conjugated HRP (1:10000 dilution in PBST, Jackson Immuno Research, Cat #016-030-084, 100 μl/well) for 40 minutes at 37° C. After a final wash, plates were incubated with 100 μl/well ELISA substrate TMB (Innoreagents, Cat #TMB-S-002). The reaction was stopped in 10 minutes at 25° C. with 50 μl/well 1M H₂SO₄, and the absorbance was read at 450 nm. Data was analyzed using Graphpad Prism software and EC₅₀ values were reported.
For the capture ELISA, 96-well micro plates were coated with 2 μg/ml goat anti-human IgG (AffiniPure Goat Anti-Human IgG, Fcγ fragment specific, Jackson Immunoresearch, Cat #109-005-098) instead of goat anti-mouse IgG Fey fragment, 100 μl/well.
The source holds these as a separate data set.

The target in experiment [7] is T4, cynomolgus monkey IL4Rα-his protein (cynomolgus monkey, UniProt A0A2K5V580 33-239).
T4 construct: Bought protein; also called Cynomolgus IL4Rα; Cyno-IL4Rα-his; not shown: his tag
In words: indirect ELISA, coated cyno IL4Rα-his.

Like-named read-outs stand apart in the source and are kept apart here.

B1: mouse antibody B1D2F7D3B5 (antibody, V domains shown)
VH: EVKLVESGGGLVKPGGSLKLSCAASGFTFSSYAMSWVRQTPEKRLEWVASISSGDSTYYLDSVKGRFTISRDNAMNILYLQMSSLRSEDTAVYYCERSGGSAPYWGQGTLVSVSA
VL: QIVLTQSPAIMSASPGEMVTISCSASSSVSYMYWYQQKPGSSPKPWIYRTSNLASGVPARFSGSGSGTSYSLTISSMEAEDAATYYCQQYHSFPLTFGAGTKLELK
notes: Mouse hybridoma mAb
For orientation: IC50 means the concentration needed to halve the response being measured. On to B1, for which the 50% inhibitory concentration (IC50) in experiment [1] was 1.8 nM; in experiment [2] it was 0.024 nM.

B2: mouse antibody B9D1D11F8D8 (antibody, V domains shown)
VH: EVKLVESGGGLVKPGGSLKLSCAASGFTFSSYAMSWVRQTPEKRLEWVASISSGDSTYYLDSVKGRFTISRDNARNILYLQVSSLRSEDTAMYYCERSGGSAPYWGQGTLVTVSA
VL: QIVLTQSPAIMSASPGDMVTISCSASSSVNYMYWYQQKPGSSPKPWIYRTSNLASGVPARFSGSGSGTSYSLTISSMEAEDAATYYCQQYHSFPLTFGAGTKLELK
notes: Mouse hybridoma mAb
Turning to B2, the IC50 worked out at 2.88 nM in experiment [1] and 0.0209 nM in experiment [2].

B3: mouse antibody B8G11F2B7G5E8 (antibody, V domains shown)
VH: EVQLQQSGADLVRPGASVKLSCTASGFNIKDTYMHWVKQRPEQGLEWVGRIDPTNGYTIYASKFQGKATITADTSSNTAYMQLSSLTSGDTAVYHCVSRRPWFAYWGQGTLVTVSA
VL: DILMTQTPLSLPVSLGAQASISCRSSQSIVHSNGNTYLEWYLQKPGQSPKLLIYKVTNRFSGVPDRFSGSGSGTDFTLKISRVEAEDLGIYYCFQGSHVPYTFGGGTKLEIK
notes: Mouse hybridoma mAb; also called Mouse B8G11F2B7G5E8; mAb B8G11F2B7G5E8
One may read the EC50 as the concentration at which the effect is half-maximal. Consider B3, for which the EC50 in experiment [3] was 0.41 nM; in experiment [4], 0.87 nM; in experiment [5], 0.21 nM; in experiment [6], 0.14 nM; in experiment [7], 0.5 nM. Besides, the IC50 in experiment [1] was 0.81 nM; in experiment [2], 0.0171 nM.

B4: chimeric antibody B8G11F2B7G5E8 (antibody, human IgG4 S228P, kappa, V domains shown)
VH: EVQLQQSGADLVRPGASVKLSCTASGFNIKDTYMHWVKQRPEQGLEWVGRIDPTNGYTIYASKFQGKATITADTSSNTAYMQLSSLTSGDTAVYHCVSRRPWFAYWGQGTLVTVSA
VL: DILMTQTPLSLPVSLGAQASISCRSSQSIVHSNGNTYLEWYLQKPGQSPKLLIYKVTNRFSGVPDRFSGSGSGTDFTLKISRVEAEDLGIYYCFQGSHVPYTFGGGTKLEIKR
notes: Mouse variable domains on human IgG4/kappa; also called Chimeric B8G11F2B7G5E8; chB8G11F2B7G5E8
Regarding B4, the EC50 in experiment [3] was 0.78 nM; in experiment [4] it was 1.01 nM; in experiment [5] it was 0.32 nM; in experiment [6], 0.27 nM; in experiment [7], 1.06 nM.

B5: mouse antibody C2C1A1A1 (antibody, V domains shown)
VH: EVQLVESGGGLVQPGGSLKLSCAASGFTFSTYGMSWVRQTPDKRLELVATINSNGGSTSYPDSVKGRFTISRDNAKNTLYLQMSSLKSEDTAMFYCARFFRFRNAMDYWGQGTSVTVSS
VL: DIQMTQSPASLSASVGETVTITCRTSENIYSYLAWYQQKQGKSPQFLVYNAKTLAEGVPSRFSGSGSGTQFSLNINSLQSEDFGSYYCQHYYGPPTWTFGGGTKLEIK
notes: Mouse hybridoma mAb; also called Mouse C2C1A1A1
Turning to B5, the EC50 stood at 0.31 nM in experiment [3] and 0.03 nM in experiment [6]. In addition, the concentration for half-maximal inhibition (IC50) in experiment [1] is 0.812 nM; in experiment [2], 0.0383 nM.

B6: chimeric antibody C2C1A1A1 (antibody, human IgG4 S228P, kappa, V domains shown)
VH: EVQLVESGGGLVQPGGSLKLSCAASGFTFSTYGMSWVRQTPDKRLELVATINSNGGSTSYPDSVKGRFTISRDNAKNTLYLQMSSLKSEDTAMFYCARFFRFRNAMDYWGQGTSVTVSS
VL: DIQMTQSPASLSASVGETVTITCRTSENIYSYLAWYQQKQGKSPQFLVYNAKTLAEGVPSRFSGSGSGTQFSLNINSLQSEDFGSYYCQHYYGPPTWTFGGGTKLEIKR
notes: Mouse variable domains on human IgG4/kappa; also called Chimeric C2C1A1A1; chC2C1A1A1
Take B6: the EC50 in experiment [3] was determined as 0.63 nM; in experiment [4], 0.62 nM; in experiment [5], 0.05 nM; in experiment [6] it was 0.05 nM; in experiment [7] it was 0.6 nM.

B7: mouse antibody C2B2F7B7 (antibody, V domains shown)
VH: EVQLVESGGGLVQPGGSLKLSCAASGFTFSTYGMSWVRQTPDKRLELVATINSNGGSTNYPDSVKGRFTISRDNAKNTLYLQMSSLKSEDTAMYYCARFFRIRNAMDYWGQGTSVTVSS
VL: DIQMTQSPASLSASVGETVTITCRASENIYSYLAWYQQKQGKSPQFLVYNAKTLAEGVPSRFSGSGSGTQFSLKINSLQPEDFGSYYCQHYYGTPTWTFGGGTKLEIK
notes: Mouse hybridoma mAb
For B7, the figures for the IC50 in experiment [1] and in experiment [2] were 0.726 nM and 0.716 nM, respectively.
